Marks after values point to notes of the source that are not given here.
Legend:
VDR [1] = test: immunohistochemistry of VDR expression in mouse kidney, colon and bone tissue; format: in vivo, mice; settings: for VDR-positive cell rate in the kidney: FIG. 9; for VDR positive cell rate in the colon (positive cells to total cells in each crypt): FIG. 11
From the text: The immunohistochemical technique was used to detect the expression of VDR in kidney tissues.

VDR [2] = test: expression of VDR gene (mRNA) in MC3T3-E1 cells under LF stimulation; format: cell-based; settings: FIG. 1
[3] = blood biochemical markers in mice after oral LF; format: in vivo; settings: for 25-OH VD3 / Ca / P / PTH: blood, Mean ± SD, n = 8
From the text: Generally, the content of VD is reflected by measuring the content of 25-OH D3 in the serum. […] The contents of calcium and phosphorus in serum reflect the degree of absorption of calcium and phosphorus in the small intestine. […] However, oral administration of LF still has no effect on serum calcium and phosphorus content.

[4] = contents of calcium and phosphorus in urine of mice; format: in vivo; settings: LF1000 group
Procedure: In order to reflect the reabsorption of calcium and phosphorus by the kidney, the contents of calcium and phosphorus in urine were measured. In the VD-deficient groups, the calcium content in the LF1000 group is reduced by 67% compared with the control group, and the phosphorus content in the LF1000 group is reduced by 72% compared with the control group; in the VD-normal groups, the calcium content in the LF1000 group is reduced by 80% compared with the control group, and the phosphorus content in the LF1000 group is reduced by 78% compared with the control group.

VDR [5] = test: VDR protein expression in cytoplasm and nucleus of osteoblasts after LF for different times; format: cell-based
Procedure: After verifying that LF promotes high expression of VDR at the transcription level, it is further verified at the protein level. VDR exists in the cytoplasm and nucleus, but plays a major role in the nucleus. The inventors stimulated osteoblasts for different times using LF to measure the expression of VDR in the cytoplasm and nucleus. […] In the nucleus, VDR expression began to increase at 1 hour after LF treatment, and reaches the maximum at 2-6 h.

osteoblasts = test: proliferation of osteoblasts promoted by LF (MTT method); format: cell-based; settings: FIG. 4
Procedure: Based on transcriptome data, the inventors verified that LF can promote the high expression of VDR at both the gene and protein levels. In order to confirm the role of this pathway in the promotion of osteoblast proliferation and differentiation by LF, the inventors first designed a VDR siRNA to achieve the purpose of transiently silencing VDR genes. The principle of siRNA is the post-transcriptional gene silencing mechanism that blocks the expression of corresponding gene. 20 μM VDR siRNA was added to osteoblasts, the proliferation rate of osteoblasts promoted by LF was detected by MTT method, and the ALP activity of osteoblasts promoted by LF was detected by enzyme-linked immunoassay.
The inventors first confirmed that LF promotes the proliferation and differentiation of osteoblasts through the regulation of the VDR pathway using the osteoblast model. Since the osteogenic effect of VDR is mainly achieved by vitamin D, in order to simulate the normal physiological environment, the inventors treated osteoblasts with both 1 nM of […] (the active form of vitamin D) and LF, and then studied the proliferation and differentiation of osteoblasts.

VDR [6] = test: effect of inhibition of endocytosis (hypertonic, 4° C.) on VDR expression promoted by LF in MC3T3-E1 cells; format: cell-based; settings: under the condition of inhibiting endocytosis (hypertonic, 4° C.), FIG. 18
Procedure: Studies have shown that LF can directly enter the cell and bind with DNA to regulate cell gene expression. Therefore, in order to study the effect of endocytosis, cells were stimulated with LF under culture conditions that inhibit endocytosis, and the inhibitory effect on the endocytosis of LF were detected firstly. […] Then, the promotion effect of LF on VDR was measured to analyze whether the inhibition of endocytosis affected the expression of VDR promoted by LF to determine the site of action of LF.

[7] = bone mineral density of the femur of mice; format: in vivo
From the text: The factors affecting bone mineral density mainly include bone mass factors and bone quality factors. Decreased bone mass is an important factor in the occurrence of common bone diseases, and bone mineral density (BMD) is an important indicator for quantifying bone mass in bone mineral metabolism. The BMD index is of great significance for the prediction of fracture risk, the early diagnosis of osteoporosis and the evaluation of intervention measures.

[8] = micro-CT microstructure of trabecular bone of distal femur of mice; format: in vivo; settings: for BV/TV / TPF / Tb · N / Tb · Sp / Tb · Th: femoral ROI, Mean ± SD, n = 8
From the text: According to the micro-building theory, the strength of the trabecular bone depends not only on the BMD, but also on its three-dimensional structure. In pathology, bone damage should include both “quantitative” change and “qualitative” changes. Quantitative change is the decline of BMD, while qualitative change is the change of the microstructure of trabecular bone, such as trabecular number and thickness, trabecular connection, and so on. Trabecular bone plays a major role in the microstructure. Increasing the cross structure of each trabecular bone can increase the supporting strength of the bone, but has basically no effect on bone mineral density.
The distal femur is considered a sensitive site for detecting bone health due to high cancellous bone content and rapid bone turnover. Therefore, the inventors analyzed the microstructure of trabecular bone of the distal femur using micro-CT. […] Therefore, this study mainly analyzed the microstructure of the cancellous trabecular bone of the femur in each group. The three-dimensional structure image of the trabecular bone of the ROI region of the mouse femur obtained by micro-CT reconstruction is shown in FIG. 7A and the longitudinal section is shown in FIG. 7B.
In order to quantitatively analyze the structure of the trabecular bone, the spatial structure parameters of the trabecular bone of the ROI region shown in FIG. 7 were also measured. Trabecular bone structure parameters include the followings: Bone Volume Fraction (BV/TV), which is the ratio of the total volume of voxels representing the bone structure in the ROI to the total volume of all voxels in the region, and when the bone is unhealthy, the trabecular bone is lost and the BV/TV value decreases; trabecular thickness (Tb·Th), which is the average thickness of trabecular bone, and when the bone is unhealthy, the value of Tb·Th decreases, and in porous materials, Tb·Th can be understood as thickness of the pore wall; trabecular number (Tb·N), which is the number of intersections of bone tissue and non-bone tissue within a given length, and when the bone is unhealthy, the value of Tb·N decreases; trabecular separation (Tb·Sp), which is the average width of the medullary cavity between the trabecular bones. An increase in Tb·Sp indicates an increased bone resorption and possible bone loss. Tb. Sp can be understood as porosity. The trabecular pattern factor is used to evaluate the morphology of the trabecular bone. This parameter is determined by the surface area and volume of the trabecular bone, and is a parameter obtained through 3D simulation. The smaller the TPF value, the better the connectivity between trabecular bones. BV/TV, Tb·Th, Tb·N, and Tb·Sp are parameters that can be provided by both micro-CT and bone tissue morphometry. The TPF value is a parameter based on the analysis of the three-dimensional structure of the trabecular bone, can be obtained from micro-CT analysis, but cannot be provided by the traditional two-dimensional method.

VDR [9] = test: Western blot detection of VDR expression in kidney, colon and bone tissue; format: in vivo, mice
From the text: The inventors further verified the expression of VDR in three major tissues, kidney, colon and bone using the Western blot method by extracting the tissue protein.

[10] = VD-normal oral-administered LF group
[11] = VD-deficient LF100-administered group as printed (second such column, c3)
[12] = VD-normal LF100-administered group as printed (second such column, c6)
[13] = osteoblasts, after LF treatment

B1: lactoferrin (protein, UniProt P02788 20-710, looked up)
Lactotransferrin: GRRRSVQWCAVSQPEATKCFQWQRNMRKVRGPPVSCIKRDSPIQCIQAIAENRADAVTLDGGFIYEAGLAPYKLRPVAAEVYGTERQPRTHYYAVAVVKKGGSFQLNELQGLKSCHTGLRRTAGWNVPIGTLRPFLNWTGPPEPIEAAVARFFSASCVPGADKGQFPNLCRLCAGTGENKCAFSSQEPYFSYSGAFKCLRDGAGDVAFIRESTVFEDLSDEAERDEYELLCPDNTRKPVDKFKDCHLARVPSHAVVARSVNGKEDAIWNLLRQAQEKFGKDKSPKFQLFGSPSGQKDLLFKDSAIGFSRVPPRIDSGLYLGSGYFTAIQNLRKSEEEVAARRARVVWCAVGEQELRKCNQWSGLSEGSVTCSSASTTEDCIALVLKGEADAMSLDGGYVYTAGKCGLVPVLAENYKSQQSSDPDPNCVDRPVEGYLAVAVVRRSDTSLTWNSVKGKKSCHTAVDRTAGWNIPMGLLFNQTGSCKFDEYFSQSCAPGSDPRSNLCALCIGDEQGENKCVPNSNERYYGYTGAFRCLAENAGDVAFVKDVTVLQNTDGNNNEAWAKDLKLADFALLCLDGKRKPVTEARSCHLAMAPNHAVVSRMDKVERLKQVLLHQQAKFGRNGSDCPDKFCLFQSETKNLLFNDNTECLARLHGKTTYEKYLGPQYVAGITNLKKCSTSPLLEACEFLRK
notes: natural glycoprotein with a molecular weight of 78 KDa in milk
VDR-positive cell rate in the kidney (VDR [1]; VD-deficient LF100-administered group): 13.8%
VDR positive cell rate in the femur (VDR [1]; VD-deficient LF100-administered group, FIG. 13): 75%
VDR-positive cell rate in the kidney (VDR [1]; VD-deficient LF1000-administered group): 17%
VDR positive cell rate in the colon (positive cells to total cells in each crypt) (VDR [1]; VD-deficient LF-administered group): more than 70%
VDR-positive cell rate in the kidney (VDR [1]; VD-normal LF100-administered group): 16.3%
VDR-positive cell rate in the kidney (VDR [1]; VD-normal LF1000-administered group): 16.5%
VDR positive cell rate in the colon (positive cells to total cells in each crypt) (VDR [1]; [10]): ~80%
VDR expression at mRNA levels (VDR [2]): up to 30 fold
25-OH VD3 [3, 11]: 14.8 ± 2.39^a ng/mL
Ca [3, 11]: 1.6 ± 0.13^a mmol/L
P [3, 11]: 2.33 ± 0.42^a mmol/L
PTH [3, 11]: 93.69 ± 34.61^b pg/mL
25-OH VD3 [3, 12]: 27.61 ± 2.93^b ng/mL
Ca [3, 12]: 2.25 ± 0.17^b mmol/L
P [3, 12]: 2.26 ± 0.33^a mmol/L
PTH [3, 12]: 91.91 ± 13.10^b pg/mL
effect on PTH content ([3]; oral 1000 mg/kg BW LF in the VD-deficient group): reduce the PTH content
effect on serum calcium and phosphorus content ([3]; oral administration of LF): no effect
effect on the 25-OH D3 content in serum ([3]; oral administration of LF vs corresponding control groups): no significant effect
calcium content in urine, reduction compared with the control group ([4]; VD-deficient groups): 67%
phosphorus content in urine, reduction compared with the control group ([4]; VD-deficient groups): 72%
calcium content in urine, reduction compared with the control group ([4]; VD-normal groups): 80%
phosphorus content in urine, reduction compared with the control group ([4]; VD-normal groups): 78%
time after which VDR expression in the cytoplasm began to normalize (VDR [5]; osteoblasts treated with LF): 12 h
time at which VDR expression in the cytoplasm reaches the maximum (VDR [5]; osteoblasts treated with LF): 4 h
VDR expression in the cytoplasm (VDR [5]; osteoblasts treated with LF for two hours): significantly increased
time at which VDR expression in the nucleus began to increase (VDR [5]; [13]): 1 h
time at which VDR expression in the nucleus reaches the maximum (VDR [5]; [13]): 2 to 6 h
effect on promoting the proliferation and differentiation of osteoblasts, compared with 1.25(OH)2D3 (osteoblasts): stronger effect
promotion effect of LF on the expression of VDR in the cytoplasm and nucleus (VDR [6]): significantly inhibited
bone mineral density of the femur, increase compared with the VD-deficient control group ([7]; VD-deficient LF100-administered group, 5 months oral, p<0.05): 5.67%
effect on bone mineral density when VD is normal ([7]; oral administration, VD normal): further promote bone mineral density
trabecular bones and cavity in longitudinal section compared with the control group ([8]; VD-deficient LF-administered group, FIG. 7): obviously more trabecular bones and smaller cavity
BV/TV of the trabecular bone compared with the VD-deficient control group and the VD-normal control group ([8]; VD-deficient groups, low-dose LF group): significantly higher
trabecular structure parameters compared with the control group [8, 10]: comparable to the control group, except for Tb·Th value
BV/TV [8, 11]: 0.252 ± 0.029^b %
TPF [8, 11]: 7.290 ± 2.128^ab mm^−1
Tb · N [8, 11]: 5.374 ± 0.501^ab mm^−1
Tb · Sp [8, 11]: 0.136 ± 0.017^b mm
Tb · Th [8, 11]: 0.054 ± 0.005^ab mm
BV/TV [8, 12]: 0.28 ± 0.017^ab %
TPF [8, 12]: 5.599 ± 0.397^b mm^−1
Tb · N [8, 12]: 6.029 ± 0.586^a mm^−1
Tb · Sp [8, 12]: 0.141 ± 0.020^b mm
Tb · Th [8, 12]: 0.057 ± 0.004^ab mm
VDR expression in the colon (VDR [9]; FIG. 15): effectively promote the expression of VDR
VDR expression in the femur, higher than that of the control group (VDR [9]; VD deficiency, LF1000-administered group, FIG. 16): 3 times
VDR expression in the kidney (VDR [9]; VD deficiency, oral lactoferrin, FIG. 14): effectively promote the expression of VDR
VDR expression in the femur, higher than that of the VD normal control group (VDR [9]; VD-normal oral-administered 100 mg LF/kg BW group, FIG. 16): 2.35 times
